Data from IntAct's records for PubMed 12925767.

B1: DASH complex subunit DAM1 (Saccharomyces cerevisiae), P53267 (parent)
chain: MSEDKAKLGTTRSATEYRLSIGSAPTSRRSSMGESSSLMKFADQEGLTSSVGEYNENTIQQLLLPKIRELSDSIITLDSNFTRLNFIHESLADLNESLGSLLYGIMSNSWCVEFSQAPHDIQDDLIAIKQLKSLEDEKNNLVMELSNMERGIKRKKDEQGENDLAKASQNKQFNQPLFPSSQVRKYRSYDNRDKRKPSKIGNNLQVENEEDYEDDTSSEASFVLNPTNIGMSKSSQGHVTKTTRLNNNTNSKLRRKSILHTIRNSIASGADLPIENDNVVNLGDLHPNNRISLGSGAARVVNGPVTKNRNSMFSGRAERKPTESRHSVAKKTEKKINTRPPFR

Variants of: B1
Details: with nup82_yeast NUP82, P40368
nup82_yeast NUP82, P40368, sequence (P40368 whole entry): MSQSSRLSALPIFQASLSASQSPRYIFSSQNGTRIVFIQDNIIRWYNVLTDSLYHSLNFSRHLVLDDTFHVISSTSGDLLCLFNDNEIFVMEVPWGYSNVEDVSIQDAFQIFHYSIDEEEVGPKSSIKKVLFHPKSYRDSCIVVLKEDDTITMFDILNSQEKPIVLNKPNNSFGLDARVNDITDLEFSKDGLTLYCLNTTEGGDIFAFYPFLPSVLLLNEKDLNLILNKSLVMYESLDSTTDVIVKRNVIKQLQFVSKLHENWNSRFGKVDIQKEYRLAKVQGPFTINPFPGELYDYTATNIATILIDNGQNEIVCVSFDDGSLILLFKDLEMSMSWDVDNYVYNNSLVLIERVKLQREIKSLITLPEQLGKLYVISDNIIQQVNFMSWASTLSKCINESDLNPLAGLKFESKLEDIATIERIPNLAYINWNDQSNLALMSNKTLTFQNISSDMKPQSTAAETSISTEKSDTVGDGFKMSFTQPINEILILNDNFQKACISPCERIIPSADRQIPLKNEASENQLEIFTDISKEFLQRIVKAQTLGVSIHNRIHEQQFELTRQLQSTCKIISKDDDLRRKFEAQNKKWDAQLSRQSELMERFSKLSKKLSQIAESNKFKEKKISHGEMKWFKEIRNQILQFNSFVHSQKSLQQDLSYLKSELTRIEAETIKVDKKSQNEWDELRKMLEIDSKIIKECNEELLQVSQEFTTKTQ

Variant | effect of a mutation on the interaction
S20A;S257A;S265A;S292A | causing an interaction

Variants of: B1
Details: with bmh1_yeast BMH1, P29311
bmh1_yeast BMH1, P29311, sequence (P29311 whole entry): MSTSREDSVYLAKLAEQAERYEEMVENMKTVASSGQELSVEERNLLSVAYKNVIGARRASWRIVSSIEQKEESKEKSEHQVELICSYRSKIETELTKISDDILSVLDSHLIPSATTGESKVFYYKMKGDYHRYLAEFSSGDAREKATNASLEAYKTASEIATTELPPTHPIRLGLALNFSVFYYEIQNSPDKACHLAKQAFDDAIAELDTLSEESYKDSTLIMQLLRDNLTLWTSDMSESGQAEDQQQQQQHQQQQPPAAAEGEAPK

Variant | effect of a mutation on the interaction
S20A;S257A;S265A;S292A | causing an interaction

Variants of: B1
Details: with med21_yeast SRB7, P47822
med21_yeast SRB7, P47822, sequence (P47822 whole entry): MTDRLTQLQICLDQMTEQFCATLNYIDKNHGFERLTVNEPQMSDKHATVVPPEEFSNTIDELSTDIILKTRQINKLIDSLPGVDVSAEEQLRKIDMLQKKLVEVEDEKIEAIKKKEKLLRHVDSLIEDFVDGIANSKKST

Variant | effect of a mutation on the interaction
S20D;S257D;S265D;S292D | causing an interaction
